acyl = not defined here
B1: peptide SGRS (peptide)
peptide: acyl-SGRS-NH2
modifications: reading uncertain; also: acylated at the amino terminus (acyl group not given here)
B2: peptide SGKS (peptide)
peptide: acyl-SGKS-NH2
modifications: reading uncertain; also: acylated at the amino terminus (acyl group not given here)
B3: peptide (V) of Table 1, YGRS (peptide)
peptide: acyl-YGRS-NH2
modifications: reading uncertain; also: acylated at the amino terminus (acyl group not given here)
B4: peptide (VI) of Table 1, RGRK (peptide)
peptide: acyl-RGRK-NH2
modifications: reading uncertain; also: acylated at the amino terminus (acyl group not given here)
B5: peptide SGRSA (peptide)
peptide: acyl-SGRSA-NH2
modifications: reading uncertain; also: acylated at the amino terminus (acyl group not given here)
B6: peptide (III) of Table 1, LGGSGERARGALE (peptide)
peptide: LGGSGERARGALE
B7: peptide LGGSGRSATRDLE (peptide)
peptide: LGGSGRSATRDLE
B8: peptide (IV) of Table 1, LGGSGHYGRSGLE (peptide)
peptide: LGGSGHYGRSGLE
B9: peptide LGGRGRSANAILE (peptide)
peptide: LGGRGRSANAILE
B10: peptide LGGSGRSANAILE (peptide)
peptide: LGGSGRSANAILE
B11: peptide LGQRGRSANAILE (peptide)
peptide: LGQRGRSANAILE
B12: peptide LGGYGRSANAILE (peptide)
peptide: LGGYGRSANAILE
B13: peptide GSGKS (peptide)
peptide: acyl-GSGKS-NH2
modifications: reading uncertain; also: acylated at the amino terminus (acyl group not given here)
B14: peptide (VII) of Table 1, FRGRK (peptide)
peptide: acyl-FRGRK-NH2
modifications: reading uncertain; also: acylated at the amino terminus (acyl group not given here)
B15: peptide (I), native cleavage sequence from plasminogen (peptide)
peptide: KKSPGRVVGGSVAH
B16: peptide LGGSGRNAQVRLE (peptide)
peptide: LGGSGRNAQVRLE
B17: peptide (II) of Table 1, LGGSGQRGRKALE (peptide)
peptide: LGGSGQRGRKALE
B18: peptide LGGSGRKASLSLE (peptide)
peptide: LGGSGRKASLSLE

Target: tissue plasminogen activator (t-PA) (human, UniProt P00750 36-562, limits assumed)
Sequence (P00750 36-562 limits assumed): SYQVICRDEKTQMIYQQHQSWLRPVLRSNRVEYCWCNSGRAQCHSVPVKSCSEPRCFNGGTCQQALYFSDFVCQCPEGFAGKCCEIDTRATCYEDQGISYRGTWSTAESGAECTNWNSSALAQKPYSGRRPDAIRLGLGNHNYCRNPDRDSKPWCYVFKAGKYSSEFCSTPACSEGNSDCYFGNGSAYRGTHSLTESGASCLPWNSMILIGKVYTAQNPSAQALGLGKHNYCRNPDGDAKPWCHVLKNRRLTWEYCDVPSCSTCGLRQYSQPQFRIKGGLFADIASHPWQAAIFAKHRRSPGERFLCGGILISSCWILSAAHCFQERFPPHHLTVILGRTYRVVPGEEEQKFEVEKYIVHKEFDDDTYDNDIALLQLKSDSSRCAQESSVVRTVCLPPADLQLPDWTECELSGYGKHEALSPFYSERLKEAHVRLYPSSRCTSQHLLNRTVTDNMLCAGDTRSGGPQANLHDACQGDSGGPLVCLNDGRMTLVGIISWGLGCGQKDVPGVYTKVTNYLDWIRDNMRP
Assay: cell-based or functional assay

Row | Binder | t-PA:u-PA Selectivity
1 | B1 | 0.3
2 | B2 | 0.04
3 | B3 | 17
4 | B4 | 57
5 | B5 | 0.05
6 | B6 | 13
7 | B7 | 0.06
8 | B8 | 21
9 | B9 | 5.2
10 | B10 | 0.016
11 | B11 | 19
12 | B12 | 5.7
13 | B13 | 0.008
14 | B14 | 78
15 | B15 | 0.33
16 | B16 | 0.011
17 | B17 | 47
18 | B18 | 0.032

Target: urokinase-type plasminogen activator (u-PA) (human, UniProt P00749 21-431, limits assumed)
Assay: cell-based or functional assay

Row | Binder | u-PA:t-PA Selectivity
19 | B1 | 3.3
20 | B2 | 23
21 | B5 | 20
22 | B7 | 16
23 | B9 | 0.019
24 | B10 | 63
25 | B11 | 0.005
26 | B12 | 0.018
27 | B13 | 121
28 | B15 | 3
29 | B16 | 89
30 | B18 | 31
